Measurements reported in article PMC8631645, “Avidity observed between a bivalent inhibitor and an enzyme monomer with a single active site” (PLoS ONE, 2021).

Assays:
[1] = biological target: T1, mesotrypsin (human, UniProt P35030 81-304); experiment: enzyme inhibition kinetics; mesotrypsin 0.25 nM, Z-GPR-pNA 5-250 uM, APPI monomer 0-400 nM or dimer inhibitor units 0-96 nM, 37 C, 100 mM Tris, 1 mM CaCl2, pH 8.0; global fit to the classic competitive inhibition equation; for the dimer an apparent constant of a single inhibitory unit; details: both partners purified
T1 construct: also called recombinant human mesotrypsin
T1 sequence (looked up): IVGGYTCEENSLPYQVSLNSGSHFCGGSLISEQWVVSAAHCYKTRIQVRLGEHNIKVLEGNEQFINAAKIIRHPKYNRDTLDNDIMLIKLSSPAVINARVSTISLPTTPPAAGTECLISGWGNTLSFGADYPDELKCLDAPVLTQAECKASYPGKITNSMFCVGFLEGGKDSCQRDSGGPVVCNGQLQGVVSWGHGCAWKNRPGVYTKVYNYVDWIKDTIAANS

[2] = biological target: bovine trypsin (bovine); experiment: enzyme activity titration; pre-titrated bovine trypsin (9 uL, 30 uM) mixed with six dilutions of APPI monomer or dimer; residual activity on 100 uM L-BAPA, 100 mM Tris, 5 mM CaCl2, pH 8.0, 37 C; compared with concentration by absorbance at 280 nm; details: both partners purified

- Ki [1]: 36.1 nM
- stoichiometry N [2]: 2 trypsin per APPI dimer
B1: dimeric amyloid precursor protein inhibitor (APPI homodimer, two APPI units in tandem joined by a GGGGSx3 linker) (other)
chain: EVCSEQAETGPCRAMISRWYFDVTEGKCAPFFYGGCGGNRNNFDTEEYCMAVCGSAMGGGGSGGGGSGGGGSEVCSEQAETGPCRAMISRWYFDVTEGKCAPFFYGGCGGNRNNFDTEEYCMAVCGSAM
modifications: three disulfides per Kunitz unit. Limits from the printed primers (text says 3L33 residues 4-55 = 290-341). GGGGSx3 linker kept between units. Possible restriction-site residues at the junction and …
